The text below walks through data of publication PMC4703518.

In one data set the target is T1, Unkempt ZnF1-3 (mouse, UniProt Q8BL48 31-174).
T1 sequence: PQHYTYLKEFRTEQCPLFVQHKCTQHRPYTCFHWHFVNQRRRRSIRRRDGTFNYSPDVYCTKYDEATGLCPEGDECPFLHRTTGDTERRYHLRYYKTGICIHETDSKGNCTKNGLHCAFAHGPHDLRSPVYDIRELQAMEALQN
The experiment in a line: ITC. On the technique in general: Isothermal titration calorimetry measures the heat released or taken up as one component is titrated into another.

The next data set concerns the target T2, Unkempt ZnF4-6 (mouse, UniProt Q8BL48 204-335).
T2 sequence: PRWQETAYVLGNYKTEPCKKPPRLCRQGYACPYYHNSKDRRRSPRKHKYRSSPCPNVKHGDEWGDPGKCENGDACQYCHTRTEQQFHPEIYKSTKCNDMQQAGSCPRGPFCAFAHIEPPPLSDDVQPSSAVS
The experiment in a line: ITC.

Another data set addresses T3, Unkempt ZnF1-6 WT (mouse, UniProt Q8BL48 31-335).
T3 sequence: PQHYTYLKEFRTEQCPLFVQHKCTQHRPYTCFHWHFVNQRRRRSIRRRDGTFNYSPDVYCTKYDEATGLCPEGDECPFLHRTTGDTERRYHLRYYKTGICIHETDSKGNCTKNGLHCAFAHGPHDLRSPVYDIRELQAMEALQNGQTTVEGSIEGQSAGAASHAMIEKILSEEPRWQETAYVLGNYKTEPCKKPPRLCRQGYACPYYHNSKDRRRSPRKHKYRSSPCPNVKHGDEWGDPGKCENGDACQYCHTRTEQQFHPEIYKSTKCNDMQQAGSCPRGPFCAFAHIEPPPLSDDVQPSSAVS
The experiment in a line: EMSA. In general terms: Mobility shift assays separate free from complexed probe on a gel.

Consider ACUCCCAAUUAUUAAUGA (ssRNA) [HSPA8 URE 18-mer UAG-mutated], for which, in the data set with Unkempt ZnF1-3, the binding result was “binds”.

Take ACUUAGAAUUAUUAAUGA (ssRNA) [HSPA8 URE 18-mer WT]: the binding result with Unkempt ZnF4-6 and with Unkempt ZnF1-6 WT was “binds” throughout.
